Measured values taken from article doi:10.1101/660712 (bioRxiv, 2019).

Molecular target: His-tagged CP47 (PSII core antenna protein CP47) (Synechocystis sp. PCC 6803, UniProt P05429 1-507)
Assay: AUC

Chain of His-tagged CP47 (PSII core antenna protein CP47) (P05429 whole entry): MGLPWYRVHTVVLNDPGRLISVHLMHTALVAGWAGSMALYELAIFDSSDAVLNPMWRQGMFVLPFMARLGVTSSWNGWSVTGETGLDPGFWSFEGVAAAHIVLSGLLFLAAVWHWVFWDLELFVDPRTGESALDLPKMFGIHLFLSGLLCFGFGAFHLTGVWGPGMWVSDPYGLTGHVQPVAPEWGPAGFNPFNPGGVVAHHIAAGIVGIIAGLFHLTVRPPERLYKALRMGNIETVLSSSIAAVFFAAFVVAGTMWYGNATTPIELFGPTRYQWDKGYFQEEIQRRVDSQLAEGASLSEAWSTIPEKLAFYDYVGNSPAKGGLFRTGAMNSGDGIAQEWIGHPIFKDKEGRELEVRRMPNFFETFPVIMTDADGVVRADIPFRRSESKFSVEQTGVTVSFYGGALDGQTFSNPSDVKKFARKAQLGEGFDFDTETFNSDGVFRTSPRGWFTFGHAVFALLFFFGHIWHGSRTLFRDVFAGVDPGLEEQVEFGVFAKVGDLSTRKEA

stoichiometry N: ~1
B1: CP43 (PSII core antenna protein) (natural protein)
chain: not shown
